This passage reports H1L1:H1L2 normalized median ratio, H2L2:H2L1 normalized median ratio and H1L1:H1L2 normalized median scalar value ln(r1/f1) results from US11306156.

The target of experiment [1] is D3H44 Fab heavy chain L143E_K145T_Q179E, ABD2-His6 tagged. Description: LCCA, SPR of light chain tags; L1:L2 DNA 1:3 normalized to 1:1; competing light chain m16.
Experiment [2] deals with D3H44 Fab heavy chain Q179R, ABD2-His6 tagged. The description is as above.
Experiment [3] has as its target D3H44 Fab heavy chain Q179K, ABD2-His6 tagged. Described as above.
Experiment [4] addresses D3H44 Fab heavy chain L143E_K145T_Q179E, ABD2-His6 tagged. Description: LCCA, SPR of light chain tags; L1:L2 DNA 1:9 normalized to 1:1; competing light chain m16.
For experiment [5], the target named is D3H44 Fab heavy chain Q179R, ABD2-His6 tagged. Described as above.
Experiment [6] addresses D3H44 Fab heavy chain Q179K, ABD2-His6 tagged. The experiment is described as above.
For experiment [7], the target named is D3H44 light chain F116C_Q124R_T178R with N-terminal HA or FLAG tag. Description: LCCA (SPR tag readout), L1:L2 DNA 1:3, normalized to 1:1; competing light chain m18.
Experiment [8] deals with D3H44 light chain Q124E_Q160E_T180E with N-terminal HA or FLAG tag. Description: LCCA (SPR tag readout), L1:L2 DNA 1:3, normalized to 1:1; competing light chain m17.
Experiment [9] deals with D3H44 light chain Q124E_V133D with N-terminal HA or FLAG tag. Description: LCCA (SPR tag readout), L1:L2 DNA 1:3, normalized to 1:1; competing light chain m9.
Experiment [10] has as its target D3H44 light chain Q124R_T178R with N-terminal HA or FLAG tag. Put plainly: LCCA (SPR tag readout), L1:L2 DNA 1:9, normalized to 1:1; competing light chain m16.
Experiment [11] has as its target D3H44 light chain Q124E_V133D with N-terminal HA or FLAG tag. Put plainly: LCCA (SPR tag readout), L1:L2 DNA 1:9, normalized to 1:1; competing light chain m9.
The target of experiment [12] is D3H44 light chain Q124R_T178R with N-terminal HA or FLAG tag. Put plainly: LCCA (SPR tag readout), L1:L2 DNA 1:3, normalized to 1:1; competing light chain m16.
The target is the same in experiment [13]. Description: LCCA (SPR tag readout), L1:L2 DNA 1:9, normalized to 1:1; competing light chain m10.
Experiment [14] has as its target D3H44 light chain Q124K_T178R with N-terminal HA or FLAG tag. Put plainly: LCCA (SPR tag readout), L1:L2 DNA 1:9, normalized to 1:1; competing light chain m18.
For experiment [15], the target named is D3H44 light chain Q124E_Q160E_T180E with N-terminal HA or FLAG tag. Description: LCCA (SPR tag readout), L1:L2 DNA 1:3, normalized to 1:1; competing light chain m12.
The target of experiment [16] is D3H44 light chain Q124E_T180E with N-terminal HA or FLAG tag. Described as above.
The target is the same in experiment [17]. Put plainly: LCCA (SPR tag readout), L1:L2 DNA 1:3, normalized to 1:1; competing light chain m15.
Experiment [18] deals with D3H44 light chain Q124K_T178R with N-terminal HA or FLAG tag. Description: LCCA (SPR tag readout), L1:L2 DNA 1:3, normalized to 1:1; competing light chain m18.
The target of experiment [19] is D3H44 light chain Q124R_T178R with N-terminal HA or FLAG tag. Put plainly: LCCA (SPR tag readout), L1:L2 DNA 1:3, normalized to 1:1; competing light chain m13.
Experiment [20] concerns the target D3H44 light chain Q124K_T178R with N-terminal HA or FLAG tag. The description is as above.
For experiment [21], the target named is D3H44 light chain T178R with N-terminal HA or FLAG tag. Described as above.
The target of experiment [22] is D3H44 light chain Q124R_T178K with N-terminal HA or FLAG tag. The experiment is described as above.
Experiment [23] concerns the target D3H44 light chain Q124E_T180E with N-terminal HA or FLAG tag. Description: LCCA (SPR tag readout), L1:L2 DNA 1:3, normalized to 1:1; competing light chain m9.
Experiment [24] concerns the target D3H44 light chain Q124E_T178E_T180E with N-terminal HA or FLAG tag. The experiment is described as above.
Experiment [25] has the same target. Put plainly: LCCA (SPR tag readout), L1:L2 DNA 1:9, normalized to 1:1; competing light chain m9.
Experiment [26] deals with D3H44 light chain Q124E_T180E with N-terminal HA or FLAG tag. Description: LCCA (SPR tag readout), L1:L2 DNA 1:3, normalized to 1:1; competing light chain m19.
The target of experiment [27] is D3H44 light chain Q124E_Q160E_T180E with N-terminal HA or FLAG tag. Description: LCCA (SPR tag readout), L1:L2 DNA 1:9, normalized to 1:1; competing light chain m12.
Experiment [28] addresses D3H44 light chain Q124E_T180E with N-terminal HA or FLAG tag. Described as above.
In experiment [29] the target is D3H44 light chain Q124K_T178R with N-terminal HA or FLAG tag. Put plainly: LCCA (SPR tag readout), L1:L2 DNA 1:9, normalized to 1:1; competing light chain m13.
For experiment [30], the target named is D3H44 light chain Q124R_T178R with N-terminal HA or FLAG tag. Put plainly: LCCA (SPR tag readout), L1:L2 DNA 1:3, normalized to 1:1; competing light chain m10.
For experiment [31] the target is unchanged. Put plainly: LCCA (SPR tag readout), L1:L2 DNA 1:9, normalized to 1:1; competing light chain m18.
Experiment [32] concerns the target D3H44 light chain Q124R_T178K with N-terminal HA or FLAG tag. The experiment is described as above.
Experiment [33] deals with D3H44 light chain Q124E_Q160E_T180E with N-terminal HA or FLAG tag. Put plainly: LCCA (SPR tag readout), L1:L2 DNA 1:3, normalized to 1:1; competing light chain m15.
Experiment [34] has as its target D3H44 light chain Q124R_T178R with N-terminal HA or FLAG tag. Put plainly: LCCA (SPR tag readout), L1:L2 DNA 1:3, normalized to 1:1; competing light chain m18.
In experiment [35] the target is D3H44 light chain Q124R_T178K with N-terminal HA or FLAG tag. The experiment is described as above.
The target in experiment [36] is D3H44 light chain Q124E_Q160E_T180E with N-terminal HA or FLAG tag. Put plainly: LCCA (SPR tag readout), L1:L2 DNA 1:9, normalized to 1:1; competing light chain m15.
In experiment [37] the target is D3H44 light chain Q124E_T180E with N-terminal HA or FLAG tag. Description: LCCA (SPR tag readout), L1:L2 DNA 1:3, normalized to 1:1; competing light chain m14.
For experiment [38], the target named is D3H44 light chain Q124R_Q160K_T178R with N-terminal HA or FLAG tag. Put plainly: LCCA (SPR tag readout), L1:L2 DNA 1:3, normalized to 1:1; competing light chain m13.
The target of experiment [39] is D3H44 light chain Q124E_Q160E_T180E with N-terminal HA or FLAG tag. Put plainly: LCCA (SPR tag readout), L1:L2 DNA 1:3, normalized to 1:1; competing light chain m9.
Experiment [40] has the same target. Put plainly: LCCA (SPR tag readout), L1:L2 DNA 1:9, normalized to 1:1; competing light chain m9.

Take “D3H44 light chain Q124E_T178E, HA or FLAG tagged”: the H1L1:H1L2 normalized median ratio in experiment [1] worked out at 14%; in experiment [4], 15%. Also, the H2L2:H2L1 normalized median ratio in experiment [2] amounted to 97%; in experiment [3], 96%; in [5], 85%; in experiment [6] it was 89%.
For the substance “D3H44 Fab heavy chain A139C_L143E_K145T_Q179E with C-terminal ABD2-His6 tag”, in experiment [7], the H1L1:H1L2 normalized median ratio worked out at 89% and the H1L1:H1L2 normalized median scalar value ln(r1/f1) came to 2.08. For the same substance, the H1L1:H1L2 normalized median ratio in experiment [8] was determined as 11%.
With “D3H44 Fab heavy chain L143K with C-terminal ABD2-His6 tag”, the H2L2:H2L1 normalized median ratio in experiment [9] stood at 92%; in experiment [10] it was 8%; in experiment [11] it was 92%; in [12], 8%.
For the substance “D3H44 Fab heavy chain Q179K with C-terminal ABD2-His6 tag”, the H2L2:H2L1 normalized median ratio amounted to 9% in experiment [13]; 10% in experiment [14]; 92% in [15]; 96% in experiment [16]; 96% in [17]; 6% in [7]. For the same substance, the H2L2:H2L1 normalized median ratio in [18] came to 8%; in experiment [19], 4%; in experiment [20], 4%; in [21], 4%; in experiment [22], 4%; in experiment [23], 96%. Besides, the H2L2:H2L1 normalized median ratio in [24] stood at 92%; in experiment [8] it was 94%; in experiment [25], 91%; in experiment [26], 96%; in experiment [27], 90%; in experiment [28] it was 87%. Further, the H2L2:H2L1 normalized median ratio in experiment [29] is 13%; in experiment [30], 8%.
With “D3H44 Fab heavy chain L143E_K145T_Q179D with C-terminal ABD2-His6 tag”, the H1L1:H1L2 normalized median ratio in [31] was 82%; in experiment [32], 78%; in experiment [16], 15%; in experiment [33] it was 11%; in [17], 16%; in [34], 87%. Also, the H1L1:H1L2 normalized median ratio in experiment [35] came out at 89%; in [36] it was 22%; in experiment [37], 31%; in experiment [19] it was 76%; in experiment [20], 85%; in [22], 84%. Also, the H1L1:H1L2 normalized median ratio was 69% in experiment [38]; 13% in experiment [39]; 24% in [23]; 18% in experiment [40]; 11% in [28]; 89% in [29]. The H1L1:H1L2 normalized median scalar value ln(r1/f1) is 1.55 in [31]; 1.28 in experiment [32]; 1.9 in experiment [34]; 2.08 in [35]; 1.14 in [19]; 1.74 in experiment [20]. In addition, the H1L1:H1L2 normalized median scalar value ln(r1/f1) was found to be 1.63 in [22], 0.79 in experiment [38] and 2.05 in [29].
